Patent US20150224182A1 (UNIVERSITY OF VIRGINIA PATENT FOUNDATION, published 2015)
Non-standard residues stand in square brackets, D forms with d. No end group written: not given here. pT = C[C@@H](OP(=O)(O)O)[C@H](N)C(=O)O; pS = N[C@@H](COP(=O)(O)O)C(=O)O

Target: T1, HLA B*0702 (human)
T1 construct: Class I MHC molecule of the cells from which the associated phosphopeptides were detected; also called HLA-B7
Test: MS of peptides eluted from HLA; L/M column: L

| Binder | binding result |
| --- | --- |
| RPKPSS[pS]PV [RPKPSSsPV] | binds |
| RPR[pS]PTGP[pS]NSF [RPRsPTGPsNSF] | binds |
| SPK[pS]PGLKA [SPKsPGLKA] | binds |
| FSI[pS]PVRL [FSIsPVRL] | binds |
| RPN[pS]PSPTAL [RPNsPSPTAL] | binds |
| KPA[pS]PKFIVTL [KPAsPKFIVTL] | binds |
| KPP[pT]PGASF [KPPtPGASF] | binds |
| RPA[pT]GGPGVA [RPAtGGPGVA] | binds |
| RPV[pS]PGKDI [RPVsPGKDI] | binds |
| RPKLS[pS]PAL [RPKLSsPAL] | binds |
| RSE[pS]KDRKL [RSEsKDRKL] | binds |
| KPP[pS]PEHQSL [KPPsPEHQSL] | binds |
| RPP[pS]PGPVL [RPPsPGPVL] | binds |
| KPPH[pS]PLVL [KPPHsPLVL] | binds |
| VPR[pS]PKHAHSSSL [VPRsPKHAHSSSL] | binds |
| RPA[pS]AGAML [RPAsAGAML] | binds |
| RRS[pS]LDAEIDSL [RRSsLDAEIDSL] | binds |
| RPR[pS]PSPIS [RPRsPSPIS] | binds |
| TPI[pS]PGRASGM [TPIsPGRASGM] | binds |
| RPP[pS]SEFLDL [RPPsSEFLDL] | binds |
| RSL[pS]PLLF [RSLsPLLF] | binds |
| KPR[pS]PDHVL [KPRsPDHVL] | binds |
| TPAQPQRR[pS]L [TPAQPQRRsL] | binds |

| Binder | binding result |
| --- | --- |
| RPRPH[pS]APSL [RPRPHsAPSL] | binds |
| SPR[pS]PSTTYL [SPRsPSTTYL] | binds |
| LPA[pS]PRARL [LPAsPRARL] | binds |
| EPKRR[pS]ARL [EPKRRsARL] | binds |
| RTE[pS]DSGLKK [RTEsDSGLKK] | binds |
| RPI[pT]PPRNSA [RPItPPRNSA] | binds |
| RPAK[pS]MDSL [RPAKsMDSL] | binds |
| RAP[pS]PSSRM [RAPsPSSRM] | binds |
| RPH[pS]PEKAF [RPHsPEKAF] | binds |
| KPY[pS]PLASL [KPYsPLASL] | binds |
| RPR[pS]PTGP [RPRsPTGP] | binds |
| RPRAN[pS]GGVDL [RPRANsGGVDL] | binds |
| RPQRA[pT]SNVF [RPQRAtSNVF] | binds |
| FRR[pS]PTKSSLDY [FRRsPTKSSLDY] | binds |
| RPQRAT[pS]NVF [RPQRATsNVF] | binds |
| RPR[pS]PGSNSKV [RPRsPGSNSKV] | binds |
| KPQTRGK[pT]F [KPQTRGKtF] | binds |
| SPS[pS]PSVRRQL [SPSsPSVRRQL] | binds |
| KPA[pS]PARRL [KPAsPARRL] | binds |
| KPPYRSH[pS]L [KPPYRSHsL] | binds |
| RPV[pT]PVSDL [RPVtPVSDL] | binds |
| RPY[pS]PPFFSL [RPYsPPFFSL] | binds |
| FRR[pS]PTKSSL [FRRsPTKSSL] | binds |

| Binder | binding result |
| --- | --- |
| SPSTSRSGG[pS]SRL [SPSTSRSGGsSRL] | binds |
| SPEKAGRR[pS]SL [SPEKAGRRsSL] | binds |
| YQR[pS]FDEVEGVF [YQRsFDEVEGVF] | binds |
| RPR[pS]PRQNSI [RPRsPRQNSI] | binds |
| RRK[pS]QVAEL [RRKsQVAEL] | binds |
| RSG[pS]LERKV [RSGsLERKV] | binds |
| RPR[pS]LEVTI [RPRsLEVTI] | binds |
| RPF[pS]PREAL [RPFsPREAL] | binds |
| RPSRS[pS]PGL [RPSRSsPGL] | binds |
| SPA[pS]PKISL [SPAsPKISL] | binds |
| RPW[pS]PAVSA [RPWsPAVSA] | binds |
| YQR[pS]FDEVEGV [YQRsFDEVEGV] | binds |
| SPGLARKR[pS]L [SPGLARKRsL] | binds |
| RPPPPPD[pT]PP [RPPPPPDtPP] | binds |
| SPR[pS]PGKPM [SPRsPGKPM] | binds |
| RSL[pS]PGGAA [RSLsPGGAA] | binds |
| RPR[pS]AVLL [RPRsAVLL] | binds |
| RPD[pS]RLGKTEL [RPDsRLGKTEL] | binds |
| QPR[pS]PGPDYSL [QPRsPGPDYSL] | binds |
| RPR[pS]PAARL [RPRsPAARL] | binds |
| RP[pS]SPALYF [RPsSPALYF] | binds |

Target: T2, HLA-A*0201 (human)
T2 construct: also called HLA-A2
Test: listed as presented with class I MHC on cancer cells (leukemia or transformed B cells)

| Binder | binding result |
| --- | --- |
| ALG[pS]RESLATI [ALGsRESLATI] | binds |
| AMLGSK[pS]PDPYRL (From Protein SON, UniProt P18583) [AMLGSKsPDPYRL] | binds |
| AVIHQ[pS]LGL (From Protein CNPPD1, UniProt Q9BV87) [AVIHQsLGL] | binds |
| ALD[pS]GASLLHL [ALDsGASLLHL] | binds |
